According to patent US9540424B2, “Serum albumin binding molecules” (BRISTOL-MYERS SQUIBB COMPANY, priority 2010, dated 2017):
Each block holds one molecule with its values, some of them ahead of it.

What was measured:
3T3-L1 adipocytes = experiment: pERK assay in 3T3-L1 adipocytes; type: cell-based, mouse
Protocol: 3T3-L1 cells (ATCC # CL-173) are mouse fibroblasts that can be differentiated into mouse adipocytes. Since β-klotho is expressed only in differentiated 3T3-L1 cells, it was necessary to first differentiate them before performing a β-klotho pERK 1/2 assay as described in Example B3.
The cells were grown in DMEM media (Invitrogen #12430-054) supplemented with 10% characterized fetal bovine serum (Hyclone # SH30071.03) and 1X Antibiotic-Antimycotic (Gibco #15240-096). Cells were cultured in a 37° C. incubator with 5% CO2. The sub-culturing procedure was followed as described in ATCC's product information sheet with the exception that TrypLE Express (Gibco #12605) was used instead of the Trypsin-EDTA solution.
Approximately 68 hours before differentiation, 5500 cells per well (in 150 μl media) were seeded into 96 well plates (Falcon #353072); cell numbers could be adjusted according to the time of the seeding and their doubling time, but cells were 100% confluent at the time the differentiation procedure was started. […]
At the ninth to tenth day of differentiation, the growth media was aspirated off the cells and cells were starved with 200 μl of DMEM (Invitrogen #12320-032) with 2% fetal bovine serum overnight. […] The plate was finally read on a PerkinElmer Envision 2103 Multilabel Reader, using standard Alpha Screening settings.

HSA [1] = biological target: T1, HSA (Homo sapiens, UniProt P02768); experiment: SPR (Biacore T100) kinetics of FGF21-SABA1 fusions: HSA; type: binding; details: flow rate 30 μl/min
Protocol: (§1) The binding competency and thermodynamic characterization of FGF21-SABA fusion variants to human serum albumin were performed using Isothermal Titration calorimetry on a Microcal VP-ITC instrument (Microcal Inc. Amherst Mass., USA). […] The detailed experimental conditions are described below.
(§2) For the calorimetry assay, the FGF21-SABA variant SABA1-FGF21v1 (SEQ ID NO: 132) was used. […] For the SPR studies, SABA1-FGF21v1 and SABA1-FGF21v3 (SEQ ID NO: 134) were examined.
(§3) Serum albumins were dissolved in PBS buffer (10 mM sodium phosphate, 130 mM sodium chloride, pH 7.1) to a concentration of 10 mg/ml, and subsequently diluted to 8-10 μg/ml in 10 mM sodium acetate pH 5.0 for immobilization. Serum albumins were immobilized on a Series S CMS sensor chip using standard ethyl(dimethylaminopropyl) carbodiimide (EDC)/N-hydroxysuccinimide (NHS) chemistry in HBS-EP+ running buffer at 25° C., following general manufacturer guidelines. Flow cell 1 was activated with EDC/NHS and blocked with ethanolamine. […] Kinetic experiments were performed in PBS buffer containing 0.05% tween-20 (running buffer) at either 25° C. or 37° C. […] These samples were injected across flow cells 1-4 for 300 s, with a 420 s dissociation time, at flow rates of 30 μl/min or 60 μl/min to check for mass transfer limitation. All surfaces were regenerated with 2 pulses of 10 mM glycine pH 2.0 at 30 μl/min for 30 s. Raw sensograms were “double-referenced” by subtracting flow cell 1 data from flow cell 2, 3 or 4 data, and then subtracting a separate buffer cycle from each sensogram. The double-referenced sensogram data was fitted to a 1:1 Langmuir model using Biacore T100 Evaluation software version 2.0.2 to determine the association rate constant (ka), the dissociation rate constant (kd), and the equilibrium dissociation constant (KD).

CySA = biological target: T2, CySA (Macaca fascicularis, UniProt A2V9Z4); experiment: SPR (Biacore T100) kinetics of FGF21-SABA1 fusions: CySA; type: binding, cynomolgous monkey; details: flow rate 30 μl/min
T2 construct: purchased Equitech-Bio CMSA
Protocol: as §1, §2, §3

diabetic ob/ob mice = experiment: Acute and chronic effects of SABA1-FGF21v1 in diabetic ob/ob mice, 3 weeks daily treatment; type: in vivo, mouse
Excerpt: Additional acute and chronic effects of SABA1-FGF21v1 were examined in the diabetic ob/ob mice. At study termination after 3 weeks of daily treatment, reductions in plasma glucose, insulin and total cholesterol were observed. Plasma alanine aminotransferase was reduced and β-hydroxybutyrate levels were elevated.

HSA [2] = biological target: T1, HSA; experiment: Isothermal Titration calorimetry of SABA1-FGF21 fusion with HSA; type: binding; details: 37° C., PBS buffer
Protocol: as §1, §2
SABA-FGF21 fusion protein plus buffer was placed in the instrument sample cell at a concentration range of 0.4 to 1.0 mg/mL protein. The matching buffer was placed in the reference cell. Concentrations were determined using extinction coefficients calculated from the protein sequences of the pure proteins. The instrument reaction cell was equilibrated at 37° C. […] Data sets obtained were baseline-subtracted and corrected for the heat of dilution of the HSA injected into the cell. The resultant thermogram data was fitted using Origin™ evaluation software package (Microcal Inc.) version 2.0.2 to estimate the stochiometry, enthalpy, and equilibrium disassociation constant (KD) of the protein-protein binding reaction.

[3] = after 3 weeks of daily treatment

T2 sequence (A2V9Z4 25-608): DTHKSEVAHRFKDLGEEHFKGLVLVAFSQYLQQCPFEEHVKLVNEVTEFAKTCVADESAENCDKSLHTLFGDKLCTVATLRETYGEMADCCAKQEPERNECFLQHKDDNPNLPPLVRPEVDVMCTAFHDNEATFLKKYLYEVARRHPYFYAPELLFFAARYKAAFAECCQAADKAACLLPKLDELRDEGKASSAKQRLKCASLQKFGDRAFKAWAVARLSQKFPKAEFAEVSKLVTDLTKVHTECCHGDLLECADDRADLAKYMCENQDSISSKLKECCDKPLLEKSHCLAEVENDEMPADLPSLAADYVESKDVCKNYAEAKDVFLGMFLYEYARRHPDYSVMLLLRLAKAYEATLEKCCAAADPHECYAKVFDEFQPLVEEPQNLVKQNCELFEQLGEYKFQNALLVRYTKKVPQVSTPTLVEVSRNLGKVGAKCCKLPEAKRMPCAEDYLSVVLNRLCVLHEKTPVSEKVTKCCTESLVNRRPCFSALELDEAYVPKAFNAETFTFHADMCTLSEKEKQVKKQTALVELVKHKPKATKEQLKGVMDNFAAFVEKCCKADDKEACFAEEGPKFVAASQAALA

B1: His-tagged FGF21: non-fused His-tagged FGF21 (“FGFv1”; SEQ ID NO: 125) used as a comparator (protein)
chain: MHHHHHHPIPDSSPLLQFGGQVRQRYLYTDDAQQTEAHLEIREDGTVGGAADQSPESLLQLKALKPGVIQILGVKTSRFLCQRPDGALYGSLHFDPEACSFRELLLEDGYNVYQSEAHGLPLHLPGNKSPHRDPAPRGPARFLPLPGLPPALPEPPGILAPQPPDVGSSDPLSMVGPSQGRSPSYAS
modifications: His6 tag
- EC50 (3T3-L1 adipocytes): 4 ± 2 nM
- Fold Activation (3T3-L1 adipocytes): 2.1 ± 0.2

- kd (HSA [1]; 25° C.): 0.000333 s⁻¹
- kd (HSA [1]; 37° C.): 0.00111 s⁻¹
- ka (CySA; 25° C.): 3930 M⁻¹ s⁻¹
- kd (CySA; 25° C.): 0.0047 s⁻¹
- ka (CySA; 37° C.): 4440 M⁻¹ s⁻¹
- kd (CySA; 37° C.): 0.0123 s⁻¹
- N (stoichiometry) by isothermal titration calorimetry (HSA [2]): 0.87
B2: SABA1-FGF21v1: SABA1-FGF21 fusion, SEQ ID NO: 132; 293 aa; DNA SEQ ID NO: 184 (protein)
chain: MGVSDVPRDLEVVAATPTSLLISWHSYYEQNSYYRITYGETGGNSPVQEFTVPYSQTTATISGLKPGVDYTITVYAVYGSKYYYPISINYRTEIEKPSQGSGSGSGSGSGSGSPIPDSSPLLQFGGQVRQRYLYTDDAQQTEAHLEIREDGTVGGAADQSPESLLQLKALKPGVIQILGVKTSRFLCQRPDGALYGSLHFDPEACSFRELLLEDGYNVYQSEAHGLPLHLPGNKSPHRDPAPRGPARFLPLPGLPPALPEPPGILAPQPPDVGSSDPLSMVGPSQGRSPSYAS
- ka (HSA [1]; 25° C.): 3380 M⁻¹ s⁻¹
- ka (HSA [1]; 37° C.): 5960 M⁻¹ s⁻¹
- Plasma alanine aminotransferase (diabetic ob/ob mice; [3]): reduced
- β-hydroxybutyrate levels (diabetic ob/ob mice; [3]): elevated
- oral glucose tolerance test (diabetic ob/ob mice; mouse, in vivo, po): increased capacity to handle a glucose load
- plasma glucose, insulin and total cholesterol (diabetic ob/ob mice; study termination after 3 weeks of daily treatment): reductions
